Results from publication PMC4964982 (2016).
Bridge positions count the residues as written; N and C are the ends. Square brackets hold non-standard residues; d marks the D form. Ends that are not written are not given here. S5 = C=CCCC[C@](C)(N)C(=O)O

Assays:
Experiment in all cases: TR-FRET competition with SRC3 fragment
[1] = molecular target: T1, SRC2-SP4 687-697 (Homo sapiens, UniProt Q15596, staple 3-7)
T1 chain: HK[S5]LHR[S5]LQDS

[2] = molecular target: T2, PFE-SP2 687-697 (Homo sapiens, UniProt Q15596, staple 3-7; also: R to Q substitution, place not given here)
T2 chain: HK[S5]LHR[S5]LQDS

[3] = molecular target: T3, SRC2-WT 687-697 (Homo sapiens, UniProt Q15596)
T3 chain: HKILHRLLQDS

B1: ERα LBD (protein)
chain: NSLALSLTADQMVSALLDAEPPILYSEYDPTRPFSEASMMGLLTNLADRELVHMINWAKRVPGFVDLTLHDQVHLLECAWLEILMIGLVWRSMEHPGKLLFAPNLLLDRNQGKCVEGMVEIFDMLLATSSRFRMMNLQGEEFVCLKSIILLNSGVYTFLSSTLKSLEEKDHIHRVLDKITDTLIHLMAKAGLTLQQQHQRLAQLLLILSHIRHMSNKGMEHLYSMKCKNVVPLYDLLLEMLDAHRLHAPTS
IC50 [1]: 390 nM | IC50 [2]: 760 nM | IC50 [3]: 1100 nM
